From PMC2656442
Read-outs that look alike come from different tables or passages of the source.

Legend:
[1] = molecular target: human RhoA (residues 1-193) (human) (UniProt P61586)
[2] = molecular target: human Cdc42 (residues 1-191) (human) (UniProt P60953)
[3] = molecular target: human Rac1 (residues 1-192) (human) (UniProt P63000); assay: ITC
[4] = molecular target: human RhoA (residues 1-193) (human) (UniProt P61586); assay: ITC
[5] = molecular target: human Cdc42 (residues 1-191) (human) (UniProt P60953); assay: ITC
[6] = molecular target: human RhoA (residues 1-193) (human) (UniProt P61586); assay: ITC; remark: listed apart in the source
[7] = molecular target: human Cdc42 (residues 1-191) (human) (UniProt P60953); assay: ITC; remark: listed apart in the source
[8] = molecular target: human RhoA (residues 1-193) (human) (UniProt P61586); remark: listed apart in the source
[9] = molecular target: human Cdc42 (residues 1-191) (human) (UniProt P60953); remark: listed apart in the source

UniProt P60953, sequence (P60953 whole entry, the tested form may be a part): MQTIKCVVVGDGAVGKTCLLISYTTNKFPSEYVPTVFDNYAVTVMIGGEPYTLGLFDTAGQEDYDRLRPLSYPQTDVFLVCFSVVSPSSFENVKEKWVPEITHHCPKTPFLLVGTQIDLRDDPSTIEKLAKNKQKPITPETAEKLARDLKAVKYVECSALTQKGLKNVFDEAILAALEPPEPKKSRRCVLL
UniProt P61586, sequence (P61586 whole entry, the tested form may be a part): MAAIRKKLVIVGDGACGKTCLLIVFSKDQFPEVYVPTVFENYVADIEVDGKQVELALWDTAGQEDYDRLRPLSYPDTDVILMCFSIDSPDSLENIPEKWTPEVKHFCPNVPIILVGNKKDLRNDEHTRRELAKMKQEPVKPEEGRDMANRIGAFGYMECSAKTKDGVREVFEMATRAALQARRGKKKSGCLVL

Row | Substance | KM of GAP-stimulated GTP hydrolysis (MESG/PNP assay), GTP·Mg2+-loaded RhoA [1] [µM] | kcat of GAP-stimulated GTP hydrolysis (MESG/PNP assay), GTP·Mg2+-loaded RhoA [1] [s⁻¹] | kcat/KM of GAP-stimulated GTP hydrolysis (MESG/PNP assay), GTP·Mg2+-loaded RhoA [1] [M⁻¹ s⁻¹] | kcat of GAP-stimulated GTP hydrolysis (MESG/PNP assay), GTP·Mg2+-loaded Cdc42 [2] [s⁻¹] | fold lower KA than for Cdc42 (m1 with m18) [3] [fold] | fold lower KA than for RhoA (m1 with m19) [3] [fold] | Ka [4] [M⁻¹] | dH [4] [kcal/mol] | stoichiometry N [4] | Ka [5] [M⁻¹] | dH [5] [kcal/mol] | stoichiometry N [5] | Ka [6] [M⁻¹] | dH [6] [kcal/mol] | Ka [7] [M⁻¹] | dH [7] [kcal/mol] | KM of GAP-stimulated GTP hydrolysis (MESG/PNP assay), GTP·Mg2+-loaded RhoA [8] [µM] | kcat/KM of GAP-stimulated GTP hydrolysis (MESG/PNP assay), GTP·Mg2+-loaded RhoA [8] [M⁻¹ s⁻¹] | KM of GAP-stimulated GTP hydrolysis (MESG/PNP assay), GTP·Mg2+-loaded Cdc42 [9] [µM] | kcat/KM of GAP-stimulated GTP hydrolysis (MESG/PNP assay), GTP·Mg2+-loaded Cdc42 [9] [M⁻¹ s⁻¹]
1 | GAP domain of Graf (GTPase Regulator Associated with Focal Adhesion Kinase), wild type (domain or fragment) | 6.8 | 1.46 | 217000 | 3.65 | 100 | > 20 | 554000 | 13 | 1 | 2.42e+06 | 15 | 1 | 33800 | 1.6 | 26100 | 5.47 |  |  |  | 
2 | GAP^Graf E253A (domain or fragment) |  |  |  |  |  |  | 456000 | 10.1 |  | 298000 | 7.48 |  |  |  |  |  | 11.3 | 330000 | 19.9 | 532000
3 | GAP^Graf I358E (domain or fragment) |  |  |  |  |  |  | 33000 | 3.92 |  | 97000 | 4.64 |  |  |  |  |  |  |  | 12.4 | 
4 | GAP^Graf R266A (domain or fragment) |  |  |  |  |  |  | 93000 | 10.3 |  | 773000 | 13.8 |  |  |  |  |  | 25 | 48300 | 11 | 278000
5 | GAP^Graf V338A (domain or fragment) |  |  |  |  |  |  | 93000 | 14.5 |  | 203000 | 16.9 |  |  |  |  |  | 31.3 | 26700 | 5.9 | 243000
6 | GAP^Graf V338L (domain or fragment) |  |  |  |  |  |  | 220000 | 9.8 |  | 1.18e+06 | 15.9 |  |  |  |  |  | 8.7 | 33300 | 2.4 | 522000

The remaining lines, values ahead:

Row | KM of GAP-stimulated GTP hydrolysis (MESG/PNP assay), GTP·Mg2+-loaded RhoA [1] [µM] | kcat of GAP-stimulated GTP hydrolysis (MESG/PNP assay), GTP·Mg2+-loaded RhoA [1] [s⁻¹] | kcat/KM of GAP-stimulated GTP hydrolysis (MESG/PNP assay), GTP·Mg2+-loaded RhoA [1] [M⁻¹ s⁻¹] | kcat of GAP-stimulated GTP hydrolysis (MESG/PNP assay), GTP·Mg2+-loaded Cdc42 [2] [s⁻¹] | fold lower KA than for Cdc42 (m1 with m18) [3] [fold] | fold lower KA than for RhoA (m1 with m19) [3] [fold] | Ka [4] [M⁻¹] | dH [4] [kcal/mol] | stoichiometry N [4] | Ka [5] [M⁻¹] | dH [5] [kcal/mol] | stoichiometry N [5] | Ka [6] [M⁻¹] | dH [6] [kcal/mol] | Ka [7] [M⁻¹] | dH [7] [kcal/mol] | KM of GAP-stimulated GTP hydrolysis (MESG/PNP assay), GTP·Mg2+-loaded RhoA [8] [µM] | kcat/KM of GAP-stimulated GTP hydrolysis (MESG/PNP assay), GTP·Mg2+-loaded RhoA [8] [M⁻¹ s⁻¹] | KM of GAP-stimulated GTP hydrolysis (MESG/PNP assay), GTP·Mg2+-loaded Cdc42 [9] [µM] | kcat/KM of GAP-stimulated GTP hydrolysis (MESG/PNP assay), GTP·Mg2+-loaded Cdc42 [9] [M⁻¹ s⁻¹] | Substance
7 |  |  |  |  |  |  | 643000 | 12 |  | 445000 | 10.5 |  |  |  |  |  | 8.8 | 413000 | 10.2 | 457000 | GAP^Graf E253K (domain or fragment)
8 |  |  |  |  |  |  | 255000 | 14.4 |  | 946000 | 14 |  |  |  |  |  | 18.2 | 41700 | 15 | 333000 | GAP^Graf I358A (domain or fragment)
9 |  |  |  |  |  |  | 303000 | 10.7 |  | 1.56e+06 | 9.85 |  |  |  |  |  | 24.4 | 205000 | 8 | 205000 | GAP^Graf N225A (domain or fragment)
10 |  |  |  |  |  |  | 338000 | 16.8 |  | 92000 | 10.5 |  |  |  |  |  | 10.3 |  | 10.2 | 457000 | GAP^Graf V224K (domain or fragment)
